According to patent US20090149381:

The substances below were run against human recombinant PEDF (pigment epithelium-derived factor) (UniProt P36955).
Chain of human recombinant PEDF (pigment epithelium-derived factor) (P36955 20-418): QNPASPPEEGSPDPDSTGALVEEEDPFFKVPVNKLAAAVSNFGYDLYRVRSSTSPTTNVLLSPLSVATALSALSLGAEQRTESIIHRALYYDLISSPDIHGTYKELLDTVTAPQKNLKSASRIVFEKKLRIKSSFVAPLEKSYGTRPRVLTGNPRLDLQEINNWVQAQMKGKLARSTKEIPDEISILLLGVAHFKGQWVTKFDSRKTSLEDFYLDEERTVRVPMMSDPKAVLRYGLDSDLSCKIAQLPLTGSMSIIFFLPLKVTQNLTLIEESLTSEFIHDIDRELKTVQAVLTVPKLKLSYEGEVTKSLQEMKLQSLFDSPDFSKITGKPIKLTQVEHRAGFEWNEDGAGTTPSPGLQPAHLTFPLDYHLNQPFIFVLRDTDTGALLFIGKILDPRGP

Chain of human recombinant MMP-9 (chain, as listed by the source): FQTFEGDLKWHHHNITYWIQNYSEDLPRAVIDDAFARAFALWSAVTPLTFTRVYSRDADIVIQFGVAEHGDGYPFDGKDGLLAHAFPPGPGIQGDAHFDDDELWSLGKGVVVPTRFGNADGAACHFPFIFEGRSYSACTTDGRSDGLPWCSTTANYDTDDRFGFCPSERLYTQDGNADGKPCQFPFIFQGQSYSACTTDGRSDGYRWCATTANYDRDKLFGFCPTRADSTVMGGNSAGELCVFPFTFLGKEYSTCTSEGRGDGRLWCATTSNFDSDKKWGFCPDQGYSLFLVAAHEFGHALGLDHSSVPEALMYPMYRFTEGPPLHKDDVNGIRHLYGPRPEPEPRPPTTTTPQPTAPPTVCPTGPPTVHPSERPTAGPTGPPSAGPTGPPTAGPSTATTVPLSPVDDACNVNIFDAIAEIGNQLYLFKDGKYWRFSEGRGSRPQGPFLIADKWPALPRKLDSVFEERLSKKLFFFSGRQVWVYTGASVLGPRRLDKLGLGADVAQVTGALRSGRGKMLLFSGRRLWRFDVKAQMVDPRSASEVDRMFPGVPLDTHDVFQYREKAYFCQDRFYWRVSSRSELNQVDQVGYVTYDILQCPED

Substance | PEDF fragments observed by SDS-PAGE after protease treatment
MMP-7 | resulted in the generation of multiple PEDF fragments that were observed by SDS-PAGE. These fragments had estimated relative molecular weights of 44 and 42 KDa
activated MMP-2 | resulted in the generation of multiple PEDF fragments that were observed by SDS-PAGE. These fragments had estimated relative molecular weights of 44 and 42 KDa
human recombinant MMP-9 | resulted in the generation of multiple PEDF fragments that were observed by SDS-PAGE. These fragments had estimated relative molecular weights of 44 and 42 KDa
